From patent publication US20180258408A1
“And” between values parts separate entries of the source, which are not always exact repeats. Identical values can stand only once.

B1: sulfamidase modified with R1 oxidation at 22 °C, 120 min, 10 mmol/L sodium meta-periodate (enzyme)
chain: RPRNALLLLADDGGFESGAYNNSAIATPHLDALARRSLLFRNAFTSVSSCSPSRASLLTGLPQHQNGMYGLHQDVHHFNSFDKVRSLPLLLSQAGVRTGIIGKKHVGPETVYPFDFAYTEENGSVLQVGRNITRIKLLVRKFLQTQDDRPFFLYVAFHDPHRCGHSQPQYGTFCEKFGNGESGMGRIPDWTPQAYDPLDVLVPYFVPNTPAARADLAAQYTTVGRMDQGVGLVLQELRDAGVLNDTLVIFTSDNGIPFPSGRTNLYWPGTAEPLLVSSPEHPKRWGQVSEAYVSLLDLTPTILDWFSIPYPSYAIFGSKTIHLTGRSLLPALEAEPLWATVFGSQSHHEVTMSYPMRSVQHRHFRLVHNLNFKMPFPIDQDFYVSPTFQDLLNRTTAGQPTGWYKDLRHYYYRARWELYDRSRDPHETQNLATDPRFAQLLEMLRDQLAKWQWETHDPWVCAPDGVLEEKLSPQCQPLHNEL
modifications: N-glycans oxidised with periodate (22 °C, 120 min, 10 mmol/L), then reduced with borohydride as in new method 1
B2: sulfamidase modified with R1 oxidation at 8 °C, 60 min, 20 mmol/L sodium meta-periodate (enzyme)
chain: B1 chain
modifications: N-glycans oxidised with periodate (8 °C, 60 min, 20 mmol/L), then reduced with borohydride as in new method 1
B3: sulfamidase modified with R1 oxidation at 0 °C, 120 min, 40 mmol/L sodium meta-periodate (enzyme)
chain: B1 chain
modifications: N-glycans oxidised with periodate (0 °C, 120 min, 40 mmol/L), then reduced with borohydride as in new method 1
B4: sulfamidase modified with R1 oxidation at 22 °C, 30 min, 40 mmol/L sodium meta-periodate (enzyme)
chain: B1 chain
modifications: N-glycans oxidised with periodate (22 °C, 30 min, 40 mmol/L), then reduced with borohydride as in new method 1
B5: sulfamidase modified with R1 oxidation at 0 °C, 30 min, 40 mmol/L sodium meta-periodate (enzyme)
chain: B1 chain
modifications: N-glycans oxidised with periodate (0 °C, 30 min, 40 mmol/L), then reduced with borohydride as in new method 1
B6: sulfamidase modified according to new method 1 (enzyme)
chain: B1 chain
modifications: N-glycans oxidised with 20 mM sodium meta-periodate (0 °C, 120 min) and reduced with 50 mM sodium borohydride (0 °C, 120 min); FGly50 about 45% converted to Ser
B7: sulfamidase modified with R1 oxidation at 0 °C, 120 min, 10 mmol/L sodium meta-periodate (enzyme)
chain: B1 chain
modifications: N-glycans oxidised with periodate (0 °C, 120 min, 10 mmol/L), then reduced with borohydride as in new method 1
B8: sulfamidase modified according to new method 4 (enzyme)
chain: B1 chain
modifications: N-glycans oxidised with 20 mM sodium meta-periodate (0 °C, 120 min) and reduced with 10 mM sodium borohydride; FGly50 about 11% converted to Ser
B9: sulfamidase modified with R1 oxidation at 0 °C, 30 min, 10 mmol/L sodium meta-periodate (enzyme)
chain: B1 chain
modifications: N-glycans oxidised with periodate (0 °C, 30 min, 10 mmol/L), then reduced with borohydride as in new method 1
B10: sulfamidase modified according to the known method (WO 2008/109677) (enzyme)
chain: B1 chain
modifications: N-glycans oxidised with 20 mM sodium meta-periodate (6.5 h) and reduced with 100 mM sodium borohydride (overnight); FGly50 about 56% converted to Ser; Met184 and Met443 almost completely oxidised
B11: sulfamidase modified with R1 oxidation at 22 °C, 30 min, 10 mmol/L sodium meta-periodate (enzyme)
chain: B1 chain
modifications: N-glycans oxidised with periodate (22 °C, 30 min, 10 mmol/L), then reduced with borohydride as in new method 1
B12: sulfamidase modified with R1 oxidation at 22 °C, 120 min, 40 mmol/L sodium meta-periodate (enzyme)
chain: B1 chain
modifications: N-glycans oxidised with periodate (22 °C, 120 min, 40 mmol/L), then reduced with borohydride as in new method 1

The binders below were run against M6P receptors on MEF-1 fibroblasts (assay: cell-based or functional assay).

Row | Cell uptake % of unmodified sulfamidase uptake (% of unmodified sulfamidase uptake) | specific activity in cell homogenate (endocytosis in MEF-1 cells) (% of unmodified recombinant sulfamidase) | Binder
1 | 8.5 | – | B1
2 | 6.1 and 6.5 | – | B2
3 | 3.5 | – | B3
4 | 2.7 | – | B4
5 | 3.8 | – | B5
6 | – | < 10 | B6
7 | 9.5 | – | B7
8 | – | < 10 | B8
9 | 12 | – | B9
10 | – | < 10 | B10
11 | 7.1 | – | B11
12 | 3.5 | – | B12
